The target of experiment [1] is GST-Fg g^1-17D16A (GST fusion of the Fg γ 395-411 sequence with D16A) (human). The experiment in a line: solid-phase binding assay, wells coated with GST-γ1-17 D16A, anti-His detection, A405.
Experiment [2] concerns the target GST-Fg γ^1-17 (GST fusion protein containing the native human Fg γ 395-411 sequence) (human). Nature of the experiment: ELISA-type assay, ligand coated, apparent Kd.
The target in experiment [3] is ClfAD327C/K541C (ClfA(229-545)D327C/K541C, disulfide-stabilized closed conformation) (Staphylococcus aureus strain Newman) (UniProt Q2G015). Nature of the experiment: ITC, peptide titrated into ClfAD327C/K541C; panel assigned by the legend paragraph 25 (bovine Fg γ peptide has the lower affinity).

Substance “ClfA229-545 (recombinant His-tagged N2N3 segment of Staphylococcus aureus clumping factor A) (from UniProt Q2G015 229-545)” registered an EC50 (read off the curve) in experiment [1] of 200 nM. Besides, the Kd in experiment [2] is 222 nM.

As to “ClfAD327C/K541C (ClfA(229-545)D327C/K541C, disulfide-stabilized closed conformation) (from UniProt Q2G015 229-545)”, the Kd in experiment [2] came to 20 nM. Turning to “bovine Fg γ peptide (peptide representing the bovine Fg γ chain sequence) (from UniProt P12799 420-436)”, the Kd in experiment [3] stood at 20900 nM.

(Values after patent US20190150137A1.)
